The EC50 is the concentration needed to bring the measured effect to its halfway point. Low values mean a more potent agent, high ones a less potent agent.

*1 amine or outer side, *2 acyl side, *3 side chain or, on linkers, in order; H or OH if unused. Where no end group is shown, it is not given here. Side-chain parts run from the residue outwards. [ ]: non-standard residue; d: D form. The star is where a group is joined. C18 diacid = O=C(O)CCCCCCCCCCCCCCCCC(=O)*; C16 diacid = O=C(O)CCCCCCCCCCCCCCC(=O)*; γGlu = O=C(O)[C@H](CCC(=O)[*:2])N[*:1]; NMeI = CC[C@H](C)[C@H](NC)C(=O)O; αMeL = CC(C)C[C@](C)(N)C(=O)O; Pentanoyl = CCCCC(=O)*; AEEA = NCCOCCOCC(=O)O; Aib = CC(C)(N)C(=O)O

Data on five molecules can be found in patent US20260001928A1 (CORTERIA PHARMACEUTICALS, priority 2022, published 2026).

One test concerns the target T1, CRF1R receptor (UniProt P34998 24-415, limits assumed).
T1 sequence (looked up): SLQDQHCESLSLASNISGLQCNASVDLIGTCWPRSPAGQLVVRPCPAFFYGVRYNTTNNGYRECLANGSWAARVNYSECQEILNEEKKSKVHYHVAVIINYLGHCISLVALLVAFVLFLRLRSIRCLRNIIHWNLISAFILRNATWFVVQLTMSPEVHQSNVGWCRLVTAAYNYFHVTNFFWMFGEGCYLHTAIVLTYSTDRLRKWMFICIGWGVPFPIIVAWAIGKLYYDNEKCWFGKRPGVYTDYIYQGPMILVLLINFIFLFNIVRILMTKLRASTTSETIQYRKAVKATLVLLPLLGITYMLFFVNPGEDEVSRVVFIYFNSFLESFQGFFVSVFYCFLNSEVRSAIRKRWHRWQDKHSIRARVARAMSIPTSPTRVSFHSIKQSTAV
Kind of test: cell-based or functional assay.

Test [1] concerns the target human corticotropin-releasing factor 2a (CRF2a receptor) (human), Q13324. Kind of test: cell-based or functional assay.

human corticotropin-releasing factor 2a (CRF2a receptor) (human), Q13324, sequence (Q13324 20-411): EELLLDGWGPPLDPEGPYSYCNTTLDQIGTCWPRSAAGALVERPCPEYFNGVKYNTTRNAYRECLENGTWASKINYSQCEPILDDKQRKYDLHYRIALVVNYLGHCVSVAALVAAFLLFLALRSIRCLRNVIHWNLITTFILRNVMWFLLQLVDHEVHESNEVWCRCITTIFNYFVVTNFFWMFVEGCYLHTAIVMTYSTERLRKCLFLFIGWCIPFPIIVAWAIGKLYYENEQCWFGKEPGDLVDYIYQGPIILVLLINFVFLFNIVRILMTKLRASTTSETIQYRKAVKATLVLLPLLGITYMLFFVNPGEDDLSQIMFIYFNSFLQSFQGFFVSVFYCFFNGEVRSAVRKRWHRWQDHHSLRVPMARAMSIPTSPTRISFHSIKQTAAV

B1: SEQ ID NO 27 (peptide)
peptide: Ac-IVLSLD[dV]PIKLK([AEEA-AEEA-γGlu-γGlu-C18 diacid])Q[Aib]LLKQERQKKQREQAEKNVQILEQV-NH2
SMILES: CC[C@H](C)[C@H](NC(C)=O)C(=O)N[C@H](C(=O)N[C@@H](CC(C)C)C(=O)N[C@@H](CO)C(=O)N[C@@H](CC(C)C)C(=O)N[C@@H](CC(=O)O)C(=O)N[C@@H](C(=O)N1CCC[C@H]1C(=O)N[C@H](C(=O)N[C@@H](CCCCN)C(=O)N[C@@H](CC(C)C)C(=O)N[C@@H](CCCCNC(=O)COCCOCCNC(=O)COCCOCCNC(=O)CC[C@H](NC(=O)CC[C@H](NC(=O)CCCCCCCCCCCCCCCCC(=O)O)C(=O)O)C(=O)O)C(=O)N[C@@H](CCC(N)=O)C(=O)NC(C)(C)C(=O)N[C@@H](CC(C)C)C(=O)N[C@@H](CC(C)C)C(=O)N[C@@H](CCCCN)C(=O)N[C@@H](CCC(N)=O)C(=O)N[C@@H](CCC(=O)O)C(=O)N[C@@H](CCCNC(=N)N)C(=O)N[C@@H](CCC(N)=O)C(=O)N[C@@H](CCCCN)C(=O)N[C@@H](CCCCN)C(=O)N[C@@H](CCC(N)=O)C(=O)N[C@@H](CCCNC(=N)N)C(=O)N[C@@H](CCC(=O)O)C(=O)N[C@@H](CCC(N)=O)C(=O)N[C@@H](C)C(=O)N[C@@H](CCC(=O)O)C(=O)N[C@@H](CCCCN)C(=O)N[C@@H](CC(N)=O)C(=O)N[C@H](C(=O)N[C@@H](CCC(N)=O)C(=O)N[C@H](C(=O)N[C@@H](CC(C)C)C(=O)N[C@@H](CCC(=O)O)C(=O)N[C@@H](CCC(N)=O)C(=O)N[C@H](C(N)=O)C(C)C)[C@@H](C)CC)C(C)C)[C@@H](C)CC)C(C)C)C(C)C
As for B1, in the test with CRF1R receptor, the “EC50” value was more than 250 nM and the “Emax (% I)” value is 7%. Moreover, in test [1], the EC50 [nM] (cAMP) came to 16.9 nM.

B2: SEQ ID NO 111 (peptide)
peptide: Ac-IVLSLD[dV]PIK[αMeL]K([AEEA-AEEA-γGlu-C18 diacid])KILLEQEKQKKQREQAETNVQILAQV-NH2
SMILES: CC[C@H](C)[C@H](NC(C)=O)C(=O)N[C@H](C(=O)N[C@@H](CC(C)C)C(=O)N[C@@H](CO)C(=O)N[C@@H](CC(C)C)C(=O)N[C@@H](CC(=O)O)C(=O)N[C@@H](C(=O)N1CCC[C@H]1C(=O)N[C@H](C(=O)N[C@@H](CCCCN)C(=O)N[C@@](C)(CC(C)C)C(=O)N[C@@H](CCCCNC(=O)COCCOCCNC(=O)COCCOCCNC(=O)CC[C@H](NC(=O)CCCCCCCCCCCCCCCCC(=O)O)C(=O)O)C(=O)N[C@@H](CCCCN)C(=O)N[C@H](C(=O)N[C@@H](CC(C)C)C(=O)N[C@@H](CC(C)C)C(=O)N[C@@H](CCC(=O)O)C(=O)N[C@@H](CCC(N)=O)C(=O)N[C@@H](CCC(=O)O)C(=O)N[C@@H](CCCCN)C(=O)N[C@@H](CCC(N)=O)C(=O)N[C@@H](CCCCN)C(=O)N[C@@H](CCCCN)C(=O)N[C@@H](CCC(N)=O)C(=O)N[C@@H](CCCNC(=N)N)C(=O)N[C@@H](CCC(=O)O)C(=O)N[C@@H](CCC(N)=O)C(=O)N[C@@H](C)C(=O)N[C@@H](CCC(=O)O)C(=O)N[C@H](C(=O)N[C@@H](CC(N)=O)C(=O)N[C@H](C(=O)N[C@@H](CCC(N)=O)C(=O)N[C@H](C(=O)N[C@@H](CC(C)C)C(=O)N[C@@H](C)C(=O)N[C@@H](CCC(N)=O)C(=O)N[C@H](C(N)=O)C(C)C)[C@@H](C)CC)C(C)C)[C@@H](C)O)[C@@H](C)CC)[C@@H](C)CC)C(C)C)C(C)C
B2: in the test with CRF1R receptor, the “Emax (% I)” value was -3%. This molecule also showed an EC50 [nM] (cAMP) in test [1] of 2.58 nM.

B3: SEQ ID NO 16 (peptide)
peptide: Ac-IVLSLD[dV]PIKLK([γGlu-C16 diacid])QILLKQERQKKQREQAEKN[Aib]QILEQV-NH2
SMILES: CC[C@H](C)[C@H](NC(C)=O)C(=O)N[C@H](C(=O)N[C@@H](CC(C)C)C(=O)N[C@@H](CO)C(=O)N[C@@H](CC(C)C)C(=O)N[C@@H](CC(=O)O)C(=O)N[C@@H](C(=O)N1CCC[C@H]1C(=O)N[C@H](C(=O)N[C@@H](CCCCN)C(=O)N[C@@H](CC(C)C)C(=O)N[C@@H](CCCCNC(=O)CC[C@H](NC(=O)CCCCCCCCCCCCCCC(=O)O)C(=O)O)C(=O)N[C@@H](CCC(N)=O)C(=O)N[C@H](C(=O)N[C@@H](CC(C)C)C(=O)N[C@@H](CC(C)C)C(=O)N[C@@H](CCCCN)C(=O)N[C@@H](CCC(N)=O)C(=O)N[C@@H](CCC(=O)O)C(=O)N[C@@H](CCCNC(=N)N)C(=O)N[C@@H](CCC(N)=O)C(=O)N[C@@H](CCCCN)C(=O)N[C@@H](CCCCN)C(=O)N[C@@H](CCC(N)=O)C(=O)N[C@@H](CCCNC(=N)N)C(=O)N[C@@H](CCC(=O)O)C(=O)N[C@@H](CCC(N)=O)C(=O)N[C@@H](C)C(=O)N[C@@H](CCC(=O)O)C(=O)N[C@@H](CCCCN)C(=O)N[C@@H](CC(N)=O)C(=O)NC(C)(C)C(=O)N[C@@H](CCC(N)=O)C(=O)N[C@H](C(=O)N[C@@H](CC(C)C)C(=O)N[C@@H](CCC(=O)O)C(=O)N[C@@H](CCC(N)=O)C(=O)N[C@H](C(N)=O)C(C)C)[C@@H](C)CC)[C@@H](C)CC)[C@@H](C)CC)C(C)C)C(C)C
With B3, in the test with CRF1R receptor, the “EC50” value was 185 nM and the “Emax (% I)” value came out at 47%. The molecule also returned an EC50 [nM] (cAMP) in test [1] of 0.13 nM.

B4: SEQ ID NO 29 (peptide)
peptide: Pentanoyl-VLSLD[dV]PIKLK([AEEA-AEEA-γGlu-γGlu-C18 diacid])Q[Aib]LLKQERQKKQREQAEKNVQILEQV-NH2
SMILES: CCCCC(=O)N[C@H](C(=O)N[C@@H](CC(C)C)C(=O)N[C@@H](CO)C(=O)N[C@@H](CC(C)C)C(=O)N[C@@H](CC(=O)O)C(=O)N[C@@H](C(=O)N1CCC[C@H]1C(=O)N[C@H](C(=O)N[C@@H](CCCCN)C(=O)N[C@@H](CC(C)C)C(=O)N[C@@H](CCCCNC(=O)COCCOCCNC(=O)COCCOCCNC(=O)CC[C@H](NC(=O)CC[C@H](NC(=O)CCCCCCCCCCCCCCCCC(=O)O)C(=O)O)C(=O)O)C(=O)N[C@@H](CCC(N)=O)C(=O)NC(C)(C)C(=O)N[C@@H](CC(C)C)C(=O)N[C@@H](CC(C)C)C(=O)N[C@@H](CCCCN)C(=O)N[C@@H](CCC(N)=O)C(=O)N[C@@H](CCC(=O)O)C(=O)N[C@@H](CCCNC(=N)N)C(=O)N[C@@H](CCC(N)=O)C(=O)N[C@@H](CCCCN)C(=O)N[C@@H](CCCCN)C(=O)N[C@@H](CCC(N)=O)C(=O)N[C@@H](CCCNC(=N)N)C(=O)N[C@@H](CCC(=O)O)C(=O)N[C@@H](CCC(N)=O)C(=O)N[C@@H](C)C(=O)N[C@@H](CCC(=O)O)C(=O)N[C@@H](CCCCN)C(=O)N[C@@H](CC(N)=O)C(=O)N[C@H](C(=O)N[C@@H](CCC(N)=O)C(=O)N[C@H](C(=O)N[C@@H](CC(C)C)C(=O)N[C@@H](CCC(=O)O)C(=O)N[C@@H](CCC(N)=O)C(=O)N[C@H](C(N)=O)C(C)C)[C@@H](C)CC)C(C)C)[C@@H](C)CC)C(C)C)C(C)C
Turning to B4, in the test with CRF1R receptor, the “EC50” value was more than 250 nM and the “Emax (% I)” value was 6%. In test [1], this molecule displayed an EC50 [nM] (cAMP) of 37.2 nM.

B5: SEQ ID NO 28 (peptide)
peptide: [NMeI]VLSLD[dV]PIKLK([AEEA-AEEA-γGlu-γGlu-C18 diacid])Q[Aib]LLKQERQKKQREQAEKNVQILEQV-NH2
modifications: N-terminus assumed
SMILES: CC[C@H](C)[C@H](NC)C(=O)N[C@H](C(=O)N[C@@H](CC(C)C)C(=O)N[C@@H](CO)C(=O)N[C@@H](CC(C)C)C(=O)N[C@@H](CC(=O)O)C(=O)N[C@@H](C(=O)N1CCC[C@H]1C(=O)N[C@H](C(=O)N[C@@H](CCCCN)C(=O)N[C@@H](CC(C)C)C(=O)N[C@@H](CCCCNC(=O)COCCOCCNC(=O)COCCOCCNC(=O)CC[C@H](NC(=O)CC[C@H](NC(=O)CCCCCCCCCCCCCCCCC(=O)O)C(=O)O)C(=O)O)C(=O)N[C@@H](CCC(N)=O)C(=O)NC(C)(C)C(=O)N[C@@H](CC(C)C)C(=O)N[C@@H](CC(C)C)C(=O)N[C@@H](CCCCN)C(=O)N[C@@H](CCC(N)=O)C(=O)N[C@@H](CCC(=O)O)C(=O)N[C@@H](CCCNC(=N)N)C(=O)N[C@@H](CCC(N)=O)C(=O)N[C@@H](CCCCN)C(=O)N[C@@H](CCCCN)C(=O)N[C@@H](CCC(N)=O)C(=O)N[C@@H](CCCNC(=N)N)C(=O)N[C@@H](CCC(=O)O)C(=O)N[C@@H](CCC(N)=O)C(=O)N[C@@H](C)C(=O)N[C@@H](CCC(=O)O)C(=O)N[C@@H](CCCCN)C(=O)N[C@@H](CC(N)=O)C(=O)N[C@H](C(=O)N[C@@H](CCC(N)=O)C(=O)N[C@H](C(=O)N[C@@H](CC(C)C)C(=O)N[C@@H](CCC(=O)O)C(=O)N[C@@H](CCC(N)=O)C(=O)N[C@H](C(N)=O)C(C)C)[C@@H](C)CC)C(C)C)[C@@H](C)CC)C(C)C)C(C)C
Regarding B5, in the test with CRF1R receptor, the “EC50” value is more than 250 nM and the “Emax (% I)” value stood at 6%. The molecule also yielded an EC50 [nM] (cAMP) in test [1] of 2.2 nM.
